In patent US20240109937A1 (Johns Hopkins, published 2024):
Bridge positions count the residues as written; N and C are the ends. Square brackets hold non-standard residues; d marks the D form. Ends that are not written are not given here. Lys(N3) = [N-]=[N+]=NCCCC[C@H](N)C(=O)O; hArg = N=C(N)NCCCC[C@H](N)C(=O)O; Tle = CC(C)(C)[C@H](N)C(=O)O; Hpra = C#CCC[C@H](N)C(=O)O; Nle = CCCC[C@H](N)C(=O)O

B1: AIF (381-389) LLox (peptide)
peptide: Ac-CIKLKLLRKVC-NH2
modifications: disulfide 1-11
SMILES: CC[C@H](C)[C@@H]1NC(=O)[C@@H](NC(C)=O)CSSC[C@@H](C(N)=O)NC(=O)[C@H](C(C)C)NC(=O)[C@H](CCCCN)NC(=O)[C@H](CCCNC(=N)N)NC(=O)[C@H](CC(C)C)NC(=O)[C@H](CC(C)C)NC(=O)[C@H](CCCCN)NC(=O)[C@H](CC(C)C)NC(=O)[C@H](CCCCN)NC1=O
B2: AIF (381-389) ox (peptide)
peptide: Ac-CIKLKDGRKVC-NH2
modifications: disulfide 1-11
SMILES: CC[C@H](C)[C@@H]1NC(=O)[C@@H](NC(C)=O)CSSC[C@@H](C(N)=O)NC(=O)[C@H](C(C)C)NC(=O)[C@H](CCCCN)NC(=O)[C@H](CCCNC(=N)N)NC(=O)CNC(=O)[C@H](CC(=O)O)NC(=O)[C@H](CCCCN)NC(=O)[C@H](CC(C)C)NC(=O)[C@H](CCCCN)NC1=O
B3: AIF (370-394) (peptide)
peptide: Ac-QSVGVSSGKLLIKLKDGRKVETDHI-NH2
notes: also called AIF mimetic peptide (amino acids 370-394)
B4: AIF (370-394)-stapled peptides (peptide)
peptide: Ac-QSCGVSSG[Lys(N3)]LLCKLKDGRKV[Hpra]TDHI-NH2
modifications: disulfide 3-12; triazole 9-21
notes: also called stapled AIF (370-394) analog
B5: Cyclic peptide derived from Formula (I), X2: hR (peptide)
peptide: CI[hArg]LKDGRKVC
modifications: disulfide 1-11; also: Y1 can be H (free N-terminus), Y2 can be amino (C-terminal amide)
notes: Only the changed residues are printed; X stands for the non-natural residue

molecular target: T1, Peptidylprolyl isomerase A (PPIA), also known as cyclophilin A (CypA) (UniProt P62937 1-165); assay: printed as 'disrupts the complex AIF/Cyclophilin with a KD'; method not stated
T1 construct: Protein used for the in vitro KD/IC50 values
T1 sequence (P62937 whole entry): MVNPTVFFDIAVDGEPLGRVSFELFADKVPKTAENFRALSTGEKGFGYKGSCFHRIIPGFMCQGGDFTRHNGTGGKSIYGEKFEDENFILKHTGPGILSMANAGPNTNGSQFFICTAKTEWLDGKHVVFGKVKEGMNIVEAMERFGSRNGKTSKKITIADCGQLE

Point of comparison: B1, Kd ~1 µM. Against it:
- B2 — 2-fold higher, ~2 µM

molecular target: T1, Peptidylprolyl isomerase A (PPIA), also …; assay: disruption of the AIF/Cyclophilin complex in living cells and in vitro; method not stated

For B3, the IC50 was 5 µM.

molecular target: Apoptosis-inducing factor (AIF) protein (UniProt O95831 122-613, limits assumed); assay: printed as 'Disrupts the complex AIF/Cyclophilin with a KD'; method not stated; target taken as AIF
Sequence (O95831 122-613 limits assumed): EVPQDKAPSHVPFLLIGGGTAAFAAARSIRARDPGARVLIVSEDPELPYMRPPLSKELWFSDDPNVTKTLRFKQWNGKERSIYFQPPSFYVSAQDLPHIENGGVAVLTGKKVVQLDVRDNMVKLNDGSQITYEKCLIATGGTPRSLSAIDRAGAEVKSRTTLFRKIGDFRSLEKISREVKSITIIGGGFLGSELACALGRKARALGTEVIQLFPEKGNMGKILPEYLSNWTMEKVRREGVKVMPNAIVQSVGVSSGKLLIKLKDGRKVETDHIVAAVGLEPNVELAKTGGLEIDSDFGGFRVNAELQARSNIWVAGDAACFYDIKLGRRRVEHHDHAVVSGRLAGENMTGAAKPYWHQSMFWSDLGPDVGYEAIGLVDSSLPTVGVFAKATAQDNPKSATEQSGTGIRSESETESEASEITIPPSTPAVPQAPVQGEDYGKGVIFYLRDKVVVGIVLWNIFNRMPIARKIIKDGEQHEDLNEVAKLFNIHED

Work on Ac-RIIPGFMCQGGDFTR-NH2 [CypA (55-69)] yielded a Kd of roughly 6 µM.

molecular target: T1, Peptidylprolyl isomerase A (PPIA), also …; assay: printed as 'Disrupts the complex AIF/Cyclophilin with a KD'; method not stated

B4 was tested, and the Kd was roughly 0.8 µM.

molecular target: T1, Peptidylprolyl isomerase A (PPIA), also …; assay: binding to CypA; method not stated

With B3 the Kd was roughly 5 µM.

molecular target: T1, Peptidylprolyl isomerase A (PPIA), also …; assay: KD 'determined', method not stated; target not given, taken as CypA

Point of comparison: CIKLK[Tle][Tle]RKVC (disulfide 1-11, X stands for the non-natural residue) [Cyclic peptide derived from Formula (I), X5-X6: Tle-Tle], Kd 13.6 µM. Against it:
- CIKLK[Nle][Nle]RKVC (disulfide 1-11, X stands for the non-natural residue) [Cyclic peptide derived from Formula (I), X5-X6: Nle-Nle] — 1.7-fold higher, 22.9 µM
- CIKLKLLRKVC (disulfide 1-11) [Cyclic peptide derived from Formula (I), X5-X6: L-L] — 11-fold lower, 1.2 µM
- CIKLK[Nle]LRKVC (disulfide 1-11, X stands for the non-natural residue) [Cyclic peptide derived from Formula (I), X5-X6: Nle -L] — 2.3-fold higher, 30.7 µM
- CIKLKLIRKVC (disulfide 1-11) [Cyclic peptide derived from Formula (I), X5-X6: L-I] — 17-fold higher, 233 µM
- CIKLKILRKVC (disulfide 1-11) [Cyclic peptide derived from Formula (I), X5-X6: I-L] — 6.6-fold higher, 89.9 µM
- CIKLKVLRKVC (disulfide 1-11) [Cyclic peptide derived from Formula (I), X5-X6: V-L] — 2.8-fold higher, 37.6 µM
- CIKLKLVRKVC (disulfide 1-11) [Cyclic peptide derived from Formula (I), X5-X6: L-V] — 1.8-fold lower, 7.57 µM
- CIKLKIIRKVC (disulfide 1-11) [Cyclic peptide derived from Formula (I), X5-X6: I-I] — 4.3-fold higher, 58.9 µM
- CIKLKVVRKVC (disulfide 1-11) [Cyclic peptide derived from Formula (I), X5-X6: V-V] — 20-fold higher, 268 µM
- CIKLKL[Tle]RKVC (disulfide 1-11, X stands for the non-natural residue) [Cyclic peptide derived from Formula (I), X5-X6: L- Tle] — 11-fold higher, 151 µM
- CIKLK[Tle]LRKVC (disulfide 1-11, X stands for the non-natural residue) [Cyclic peptide derived from Formula (I), X5-X6: Tle-L] — 11-fold higher, 147 µM
- CIKLKL[Nle]RKVC (disulfide 1-11, X stands for the non-natural residue) [Cyclic peptide derived from Formula (I), X5-X6: L- Nle] — 1.8-fold higher, 23.9 µM
- B5 — 5.9-fold higher, 80.3 µM
